# Assay results reported in patent US7667100B2, “Nucleic acid compositions conferring herbicide resistance” (Dow AgroSciences LLC, priority 2002, dated 2010).
# B1: 130213: Poppy cDNA clone; auxin tolerance hit sequence (nucleic acid)
# DNA: TTAATTAAGTCGACGAATTCATATGAAGAAATGGTTGAATTTATGGAAAAAGTAACAACAAATGTTGAATCAGAGGAACTTTCAGTTGAAGAGAGAAATTTATTGTCAGTTGCTTACAAAAATGTGATTGGTGCACGCAGAGCATCATGGAGAATTATTTCATCAATTGAACAGAAAGAAGAAAGCCGTGGTAACGAAGAGAATGTATTGACCATTCGTGATTATAGATCTAAGATTGAAACTGAACTTTCAGGCATCTGTGATGGGATTTTGAAGTTGCTTGATACTAGATTGATTCCATCTGCATCTTCTGGTGATTCTAAAGTGTTTTATTTGAAAATGAAAGGTGATTATCATCGTTATTTGGCTGAGTTTAAAACTGGTACCGAAAGGAAAGAAGCTGCTGAAAGTACCCTTTCTGCTTATAAATCTGCTCAGGATATCGCAACTGCTGAACTTGCACCCACTCACCCAATCAGGCTGGGACTTGCTCTTAACTTTCTCCGTCTTTTACTACGAGATCTTGAATTCTCCTGCCGTGCTTGTAATCTCGCCAAACAGGCATTTGATGAGGCTATCGCGGAGCTGGATACCCTTGGTGAAGAATCATACAAAGACAGCACTCTAATCATGCAGCTCCTTCGTGACAATCTTACTCTGTGGACCTCCGACATGCAGGATGATGGTGCAGATGAAATTAAAGAAGCATCCAAGCCTGAAGATGAACATTAATGATAGTTTGTCTGCCACATTTAGGATCTTACCTCCTCTCAGTTTGTTTTATTAAAAGGAGAAGGTGCTTTCTTGGTACACAACTCCTCCAAGTCTACTATTAATTATTAAGGAGTTTAGGGTGGGTACTGTTAGTTTGTCATTCTTCTTATCCTTTGTGCTCGTCTTTTCCTATCTTAATTCTTCTCTTAAAAGAGTTTGAAGTTATATGTTTATCTGAATCTGTGTGGGAACTCCGTTTTATCTAAATTATCTTTTAAGATGACGATAAAAAAAAAAAAAAAAAAA
# modifications: Poppy
# B2: 130294: Poppy cDNA clone; auxin tolerance hit sequence (nucleic acid)
# DNA: TTAATTAAGTCGACGAATTCACATCTAAAGTCAACAACAAGAGCTTCTCTCTTCTCCTCGTCTCTGTTCTCCTCTCTTTTGCAATCCTCTCTCAATCTGCTGATGATTGTGTATACACAGTATACACAAGAACAGGATCAATCATCAAAGGAGGAACGGATTCAAAAATCTCACTAAGATTATACAGCAAATACGGTAAGTACATCGAGATCCCAAATCTTGAATCATGGGGTGGATTAATGGGTCCTGGTTACGATTATTTCGAAAGAGGTAATCTTGATATCTTCAGCGGAAGAGGTTATTGTCTGGGTTCACCGGTTTGTGCCATGAATCTGACTTCCGATGGTACTGGTTCCGGTCACGGATGGTATGTGAATTATGTTGAAGTTACTACTACCGGTGCACATATTAATTGTGGTCAACAGAATTTTGAAGTGGAAGATTGGCTTGCTCTTGATAGATCTCCTTATAGTCTTACCGCTATCAAGAATAATTGTAATCAGAAATTATCTGATCATGATTCTCATTCTGCTGATCAGTCTATGTAAAATTTGATCTCTTGTTTGATTCGGTGGTGGTCTAGTATGAGTGATCGGACGGTCGTCATTGTGTGTTGTAATGTTGAAATTATTTTCTTGAATAAAATGATTGAGTGAGTAGTGTTTGATTTTGCTTGGCCATCTTAGACATGATGGTGAGACTGTTTCTCGATTCGATGCAATTTTTTGGTTTTCTTGGTTGCAATCAATTCACGTTTGGTGAAAAAAAAAAAAAAAAAAAAAAAAAAAAAAAAAAAAAAAAAAAA
# modifications: Poppy
# Assays:
# [1] = tested on: Nicotiana benthamiana; experiment: Evaluation of auxin tolerance in greenhouse plants inoculated with clone transcript and sprayed with herbicide; type: in vivo; settings: for reproducibility of auxin tolerance from Trial #1 to Trial #2: greenhouse, 30% or more of test population tolerant by 14 dat
# Description: All primary hit sequences were evaluated for tolerance in larger plants, maintained under greenhouse conditions as described below.
# Plant Growth and Maintenance. Nb seeds were sown in 6.5 cm pots filled with Redi-earth medium (The Scotts Company, Marysville, Ohio) pre-wetted by injection of Hoagland's fertilizer solution [all from the Scotts Company: 147 kg Peters Excel 15-15-15 Cal-Mag, 68 kg Peters Excel 15-0-0 Cal-Lite (15% Ca), and 45 kg Peters Excel 10-0-0 MagNitrate (10% Mg) in hot tap water to 596 L total volume] into irrigation water at a ratio of 200:1, using an injection system (H. E. Anderson, Muskogee Okla,). Seededpots were placed in the greenhouse for 1 day, transferred to a 27° C. germination chamber (Carolina Greenhouses, Kinston, N.C.) for 2 days, and then returned to the greenhouse. Shade curtains (33% transmittance) were used in the greenhouse to reduce solar intensity. To ensure 16 hour day length and supplement solar radiation on overcast days, artificial lighting consisting of a 1:1 mixture of metal halide and high pressure Sylvania sodium lamps was used, delivering approximately 220 μmol/m^2/s. Evaporative cooling and steam heat were used to maintain a daytime set point of 27° C. and a nighttime temperature of 22° C. At approximately 7 days post sowing (dps), seedlings were thinned to one seedling per pot and at 17 to 21 dps, the pots were spaced farther apart to accommodate plant growth. Plants were watered with Hoagland's solution as required. Following inoculation, waste irrigation water was collected and treated with 0.5% sodium hypochlorite for 10 minutes to neutralize any viral contamination before discharging into the municipal sewer.
# Plant Inoculation. For each clone, 50 test plants as well as 10 GFP and bar (Thompson et al., EMBO J. 6:2519 [19870]) negative control plants were inoculated as follows: 2.0 mL of inoculum per clone were prepared by combining equal volumes of NCAP transcript and FES buffer [0.1 M glycine, 0.06 M K2HPO4, 1% sodium pyrophosphate, 1% diatomaceous earth (Sigma Chemical Company, St. Louis, Mo.), and either 1% silicon carbide (Aldrich Chemical Company, Milwaukee, Wis.), or 1% Bentonite (Sigma Chemical Company, St. Louis, Mo.)]. The inoculum was applied to each plant at 17 days post sowing by pipetting onto the upper surface of leaves 3 and 4 (˜20 μL per leaf). The inoculum was then spread across each leaf surface using a 3″ cotton tipped applicator (Calapro Swab, Fisher Scientific, Pittsburgh, Pa.) and a gloved finger to support the leaf. Following inoculation the plants were misted with deionized water.
# Infection Scoring. At 8 days post inoculation (dpi), the plants were visually examined and a numerical score was assigned to each plant to indicate the extent of viral infection symptoms: 0=no infection, 1=possible infection, 2=infection symptoms limited to leaves <50-75% fully expanded, 3=typical systemic infection, 4=atypically severe infection, often accompanied by moderate to severe wilting and/or necrosis. Plants receiving an infection rating of 0, 1, or 4 were discarded.
# Herbicide spraying. At 9 dpi, the well infected plants (infection score of 3, sometimes 2) were divided into 3 treatment groups. Group 1, to be sprayed with solvent only, contained 4 plants per test clone (2 plants per negative control) and Groups 2 and 3, to be treated with 13 or 40 g ae/ha, respectively, each consisted of 12 test plants per clone and 2 plants per negative control. […]
# [2] = tested on: Nicotiana benthamiana; experiment: Cross-resistance testing against six auxin compounds (greenhouse); type: in vivo; settings: for tolerance to picloram (Compound #5): 10 g ae/ha and 1/2x; for tolerance to positive control 4-amino-3,6-dichloropyridine-2-carboxylic acid (Compound #6): 10 g ae/ha and 1/2x (5 g ae/ha); for tolerance to dicamba (Compound #3): 64 g ae/ha and 1/2x; for tolerance to quinclorac (Compound #1): 200 g ae/ha and 1/2x; for extent of cross-resistance to the six auxin compounds: two trials, two doses per auxin, thresholds 25% or 35% injury or less
# Description: Six compounds, representing five classes of auxin chemistry, were selected for testing the extent of auxinic tolerance of five hit sequences (129965 (SEQ ID NO:10), 130213 (SEQ ID NO: 14), 130294 (SEQ ID NO:360), 130994 (SEQ ID NO:361), and 129870 (SEQ ID NO:359)). The compounds included the following: • 1) quinclorac (BASF Corp., Research Triangle, N.C.) • 2) (2,4-dichlorophenoxy) acetic acid (Dow AgroSciences, Indianapolis, Ind.) • 3) dicamba (Monsanto, St. Louis, Mo.) • 4) benazolin (AgrEvo USA Company, Wilmington, Del.) • 5) picloram (Dow AgroSciences, Indianapolis, Ind.) • 6) 4-amino-3,6-dichloropyridine-2-carboxylic acid (Dow AgroSciences, Indianapolis, Ind.) Compound #6 served as a positive control, as these five sequences were identified for their herbicide tolerant function using this auxin (see Example 9). Compound #1 represents the quinoline carboxylic acid chemical family, #2 is in the phenoxy carboxylic acid class, #3 is benzoic acid chemistry, #4 is unique to any currently defined class, and #5 is in the same family as the positive control, pyridine carboxylic acids.
# The protocol was essentially the same as that described in Example 9 for greenhouse evaluations. However, an individual experiment consisted of 200 test plants plus 35 GFP and 35 bar negative control plants inoculated per clone. […] Two doses per auxin were tested, with as many as 12 well-infected test plants and 2 of each of the negative controls per dose.
# The six auxin solutions were prepared by dissolving solid compound in General Purpose Solvent (GPS: 97%DMSO: 3% acetone) to achieve the following spray rates (g ae/ha) when using the spray applicator and parameters outlined in Example 9: Compound #1) 200; 2) 42; 3) 64; 4) 200; 5) 10; 6) 10. From each of these solutions, a portion was diluted with an equal volume of GPS, resulting in 1× (“high dose”) and ½× (“low dose”) concentrations for spraying. Before spray application, each auxin solution was mixed with an equal volume of diluent containing surfactants for effective penetration. The diluent was prepared as follows: 420 mL GPS, 460 mL DI water, 120 mL isopropyl alcohol, 10.167 mL Agri-Dex (Helena Chemical Co., Memphis, Tenn.), and 0.167 mL Triton X-155 (Sigma Chemical Co., St. Louis, Mo.). In addition to the 200 and 100 g ae/ha rates tested for Compound #4 (benazolin), a concentration of 250 g ae/ha was also formulated as described above and tested.
# Plants were sprayed and evaluated as described in Example 9. FIG. 7 summarizes the sequences tested and the highest dose of the compounds against which tolerance was observed. […] Results are reported in FIG. 7 for each of the trials with each construct.
# The positive control (Compound #6) was formulated differently in this set of evaluations from that described in Example 9, for consistency in the solvent/surfactant background from which to compare the activity of the individual sequences against each auxin. Thus, the spray rate used for evaluation was lower than previous experiments, 5 vs. 13 g ae/ha. The need to lower the dose with this formulation to prevent total chlorosis and/or necrosis was likely due to the addition of DMSO, Agri-Dex, and Triton X-155 which were not used in Example 9.
Molecule,"plants demonstrating auxin tolerance ([1]; 14 days after treatment (dat), 130213 homolog trial, tolerance = 25% injury or less after 13 or 40 g ae/ha 4-amino-3,6-dichloropyridine-2-carboxylic acid)",reproducibility of auxin tolerance from Trial #1 to Trial #2 [1],tolerance to picloram (Compound #5) [2],"tolerance to positive control 4-amino-3,6-dichloropyridine-2-carboxylic acid (Compound #6) [2]",tolerance to dicamba (Compound #3) [2],tolerance to quinclorac (Compound #1) [2],extent of cross-resistance to the six auxin compounds [2]
B1,17%,reproducible auxin tolerance,additional tolerance to picloram and quinclorac when the 35% injury tolerance criterion was used,tolerance consistently occurred at the lower threshold (25% injury or less),strongly effective,additional tolerance to picloram and quinclorac when the 35% injury tolerance criterion was used,tolerance was observed against four compounds
B2,,reproducible auxin tolerance,clear resistance to dicamba and picloram when the 35% rating was considered,tolerance consistently occurred at the lower threshold (25% injury or less),clear resistance to dicamba and picloram when the 35% rating was considered,consistently tolerant to quinclorac exposure at the 25% injury threshold,tolerance was observed against four compounds
